This is an account of results in patent US20260274933A1 (Innovent, published 2026).

The target of assay [1] is T1, human Ang2 (human, UniProt O15123 19-496, limits assumed).
T1 construct: Antigen of the ForteBio assay; also called human Ang2 (Beijing Sino Biological)
T1 sequence (looked up): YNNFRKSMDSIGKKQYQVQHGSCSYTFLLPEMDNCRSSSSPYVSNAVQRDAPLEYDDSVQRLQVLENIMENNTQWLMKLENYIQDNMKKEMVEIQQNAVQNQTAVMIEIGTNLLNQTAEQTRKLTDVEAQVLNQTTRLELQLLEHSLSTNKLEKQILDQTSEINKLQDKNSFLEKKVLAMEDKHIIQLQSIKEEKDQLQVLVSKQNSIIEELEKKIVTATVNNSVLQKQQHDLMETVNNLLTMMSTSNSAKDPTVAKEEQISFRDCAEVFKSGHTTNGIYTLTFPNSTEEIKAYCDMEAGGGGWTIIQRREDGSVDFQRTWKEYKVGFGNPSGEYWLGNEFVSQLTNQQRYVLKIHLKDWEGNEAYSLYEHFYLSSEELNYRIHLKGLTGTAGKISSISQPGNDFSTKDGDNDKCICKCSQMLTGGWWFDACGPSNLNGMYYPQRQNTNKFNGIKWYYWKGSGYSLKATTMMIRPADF
Kind of assay: BLI (ForteBio), bivalent binding; * dissociation constant exceeding ForteBio detection limits. In general terms: BLI is a label-free optical method that tracks binding on a fibre tip over time.

In assay [2] the target is T1, human Ang2. Kind of assay: BLI (ForteBio), bivalent binding.
The target of assay [3] is T2, hAng2-biotin (R&D, Catalog No. BT623B/CF) (human, UniProt O15123 68-496, limits assumed, biotinylated).
T2 construct: also called Ang2-Bio (R&D, Catalog No. BT623B/CF); Recombinant Biotinylated hAngiopoietin-2 protein (R&D)
T2 sequence (looked up): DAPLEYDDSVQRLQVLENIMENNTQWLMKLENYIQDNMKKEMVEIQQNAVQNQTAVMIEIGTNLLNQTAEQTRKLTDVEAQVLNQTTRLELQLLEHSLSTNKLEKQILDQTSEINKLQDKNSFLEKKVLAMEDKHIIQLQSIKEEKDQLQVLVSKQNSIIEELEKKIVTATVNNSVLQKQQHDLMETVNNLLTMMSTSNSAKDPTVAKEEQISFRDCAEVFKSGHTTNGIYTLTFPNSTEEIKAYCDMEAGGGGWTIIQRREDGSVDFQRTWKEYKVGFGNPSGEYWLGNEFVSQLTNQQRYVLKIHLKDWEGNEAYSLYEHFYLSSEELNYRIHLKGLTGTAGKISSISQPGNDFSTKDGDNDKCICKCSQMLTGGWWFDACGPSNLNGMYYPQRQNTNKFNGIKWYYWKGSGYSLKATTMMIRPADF
Kind of assay: blocking ELISA: Tie2-Fc coated, binding of hAng2-biotin blocked. On the procedure: The plate was washed 3 times with PBST and blocked with 3% BSA for 1.5 h. […] The plate was washed 3 times with PBST, Avidin HRP (1:2000) was added, and the plate was incubated for 35 min. The plate was washed 6 times with PBST, the color development was performed with TMB for 5 min, and OD450 nm was read after stopping.

For assay [4], the target named is T3, biotin-labeled VEGF A165 (ACRO, Catalog No. VE5-H8210) (human, UniProt P15692-4 27-191, biotin-labeled).
T3 construct: also called hVEGF A
Nature of the assay: blocking ELISA: biotin VEGF A165 captured on streptavidin, binding of VEGFR-Fc blocked; value printed as EC50 in the table under the curves, unit from the axis. On the procedure: SA (Thermo, Catalog No. 21125) was diluted to 1 μg/mL, and 100 μL/well of SA was plated in a microplate at 4° C. overnight. The plate was washed 3 times with PBST and blocked with 3% BSA for 1.5 h. […] The plate was washed 6 times with PBST, the color development was performed with TMB for 5 min, and OD450 nm was read after stopping.
(In general: In an ELISA, binding on a coated surface is turned into a signal by an enzyme label.)

For assay [5], the target named is T4, human VEGF165 (R&D) (human, UniProt P15692-4 27-191).
T4 construct: Antigen of the ForteBio assay
Nature of the assay: BLI (ForteBio), monovalent binding.

Assay [6] deals with T4, human VEGF165 (R&D). Nature of the assay: BLI (ForteBio), bivalent binding; * dissociation constant exceeding ForteBio detection limits.
Assay [7] deals with T4, human VEGF165 (R&D). Kind of assay: BLI (ForteBio), bivalent binding.

T4 sequence (P15692 other isoform, or with tags, fused parts or gaps limits assumed): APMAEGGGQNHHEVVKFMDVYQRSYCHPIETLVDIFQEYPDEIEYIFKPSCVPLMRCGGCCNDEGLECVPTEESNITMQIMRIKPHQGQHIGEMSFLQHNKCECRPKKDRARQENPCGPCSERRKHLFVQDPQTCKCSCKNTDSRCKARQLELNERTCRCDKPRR
T3 sequence (P15692 other isoform, or with tags, fused parts or gaps limits assumed): as above

B1: LA24C11.10 (Ang2 VHH) (VHH)
VHH: EVQLLESGGGLVQPGGSLRLSCAASGFALDYYAIGWFRQAPGKGLEGVSCISSGEGSTYYADSVKGRFTISRDNSKNTVYLQMNSLRAEDTAVYYCATDSRGDDVACEGLRRNEYDYWGQGTLVTVSS
notes: Humanized anti-Ang2 VHH; also called hz24C11.10; LA24C11.0
In the case of B1, in the assay with human Ang2 [1], the koff was ≤ 0.0002 s⁻¹. Moreover, in the assay with human Ang2 [2], the Kd is ≤ 0.828 nM and the kon is 242000 M⁻¹ s⁻¹. The “IC50 (read off the curve)” value in assay [3] was ~0.06 mg/L.

B2: LA42F8 (VEGFA VHH) (VHH)
VHH: QLQLVESGGGLVQPGGSLRLSCAASGFNLDYYPIGWFRQAPGKEREGVSCISSVGSTNYADSVKGRFTISRDNAKNTVYLQMNSLKPEDTAVYYCAADPLCSALILPPPFLSWGQGTQVTVSS
notes: Alpaca anti-VEGF A VHH; also called LA42F8 supernatant
For the molecule B2, the 50% effective concentration (EC50) in assay [4] turned out to be 0.0149 mg/L. In the assay with human VEGF165 (R&D) [5], this molecule came in with a Kd of 6.11 nM, a koff of 0.00116 s⁻¹ and a kon of 189000 M⁻¹ s⁻¹. The off-rate constant (koff) with human VEGF165 (R&D) [6] is ≤ 0.0002 s⁻¹. In addition, in the assay with human VEGF165 (R&D) [7], the Kd stood at 0.843 nM and the on-rate (kon) is 237000 M⁻¹ s⁻¹.

For orientation: koff means the rate constant with which the complex falls apart. A higher koff goes with a short-lived complex. A word on the kon: it is a measure of how fast the partners come together. High values mean fast association, low ones slow association. One may read the EC50 as the concentration that produces a half-maximal response. A low value points to higher potency in that assay.
